Values of other authors as cited in publication PMC9917443.
Where two headings read alike, the source gives them in different places. Each block holds one substance with its values, some of them ahead of it.

Columns and labels:
GB1a SD1 [1] = biological target: GB1a SD1 (UniProt Q9UBS5)
GB1a SD1 [2] = biological target: GB1a SD1 (UniProt Q9UBS5); remark: listed apart in the source
GB1a SD1 [3] = biological target: GB1a SD1 (UniProt Q9UBS5); remark: listed apart in the source

Chain of GB1a SD1 (Q9UBS5 30-96): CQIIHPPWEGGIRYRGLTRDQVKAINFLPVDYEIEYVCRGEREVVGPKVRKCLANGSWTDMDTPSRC
Chain of sAPP (P05067 18-687): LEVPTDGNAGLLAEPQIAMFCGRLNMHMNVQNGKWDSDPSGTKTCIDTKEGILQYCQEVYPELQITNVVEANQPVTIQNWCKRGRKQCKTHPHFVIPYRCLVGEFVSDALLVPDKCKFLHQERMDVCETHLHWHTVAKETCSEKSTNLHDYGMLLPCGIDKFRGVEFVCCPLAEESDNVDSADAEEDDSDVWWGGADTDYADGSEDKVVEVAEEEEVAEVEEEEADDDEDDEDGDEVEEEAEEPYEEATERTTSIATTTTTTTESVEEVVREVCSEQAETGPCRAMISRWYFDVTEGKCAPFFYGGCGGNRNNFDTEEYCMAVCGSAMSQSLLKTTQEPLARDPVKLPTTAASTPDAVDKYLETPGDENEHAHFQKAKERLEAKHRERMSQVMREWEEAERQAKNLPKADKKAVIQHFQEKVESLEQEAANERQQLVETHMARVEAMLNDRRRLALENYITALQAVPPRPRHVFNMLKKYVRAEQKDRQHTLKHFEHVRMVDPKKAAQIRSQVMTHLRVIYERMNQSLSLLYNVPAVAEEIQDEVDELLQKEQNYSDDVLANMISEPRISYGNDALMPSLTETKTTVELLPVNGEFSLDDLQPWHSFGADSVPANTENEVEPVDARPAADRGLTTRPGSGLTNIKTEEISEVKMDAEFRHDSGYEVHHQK
Chain of APP (P05067 18-770): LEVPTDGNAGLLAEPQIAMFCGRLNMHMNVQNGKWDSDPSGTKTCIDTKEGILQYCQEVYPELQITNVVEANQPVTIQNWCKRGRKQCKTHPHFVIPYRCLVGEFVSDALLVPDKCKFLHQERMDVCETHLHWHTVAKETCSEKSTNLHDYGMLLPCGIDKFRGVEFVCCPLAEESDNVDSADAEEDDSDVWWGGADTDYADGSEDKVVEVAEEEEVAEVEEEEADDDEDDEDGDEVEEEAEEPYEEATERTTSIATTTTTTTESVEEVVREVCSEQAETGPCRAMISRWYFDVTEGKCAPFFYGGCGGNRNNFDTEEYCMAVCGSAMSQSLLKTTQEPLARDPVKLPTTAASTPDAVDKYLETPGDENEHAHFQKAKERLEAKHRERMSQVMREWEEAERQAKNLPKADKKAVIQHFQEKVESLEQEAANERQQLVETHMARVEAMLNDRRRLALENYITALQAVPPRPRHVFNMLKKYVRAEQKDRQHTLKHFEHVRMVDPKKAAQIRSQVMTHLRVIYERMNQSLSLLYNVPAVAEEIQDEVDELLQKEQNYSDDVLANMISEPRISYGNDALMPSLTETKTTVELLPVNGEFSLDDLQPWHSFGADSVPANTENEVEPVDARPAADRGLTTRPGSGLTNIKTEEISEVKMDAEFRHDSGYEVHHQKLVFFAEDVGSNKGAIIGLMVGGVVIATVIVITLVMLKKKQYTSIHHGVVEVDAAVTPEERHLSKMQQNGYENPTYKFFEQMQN

- Kd (GB1a SD1 [1]): 0.183 µM
Substance: APP (from UniProt P05067)

- Kd (GB1a SD1 [2]): 0.81 µM
Substance: APP17 APP17 peptide (from UniProt P05067)

- Kd (GB1a SD1 [3]): 0.431 µM
Substance: sAPP (from UniProt P05067)
